B1: LINE1-full (parent)
chain: UACGUAGGUGGUUUUCCCCUGAUAGUGCUAAGGGGGCCUGGAAGUUUGGACUGGGCAGAGCUCAACACAGCGUGGCAAAGUGGCUGUGGCUAGACUGCCUCUCUGGAUUCCUCGUCACUCAGCAGGGCAUCUCUGAGAGAAAUGCC

Variants of: B1
Assay: self-cleavage, relative activity (ratio to wild type); higher = more cleavage; in vitro, sequencing; the parent is a self-cleaving ribozyme

In order of falling self-cleavage:
1. UACGUAGGUGGUUUUCCCCUGAUAGUGCUAAGGGGGCCUGGAAGUUUGGACUGGGCAGAGCUCAACACAGCGUGGGAAAGUGGCUGUGGCUAGACUGCCUCUCUGGAUUCCUCGUCACUCAGCAGGGCAUCUCUGAGAGAGAUGCC [C76G A141G]  2.47
2. UACGUAGGUGGUUUUCCCCUGAUAGUGCUAAGGGGGCCUGGAAGUUUGGCCUGGGCAGAGCUCAACACAGCGUGGCAAAGUGGCUGUGGCUAGACUGCCUCUCUGGAUUCCUCGUCACUCGGCAGGGCAUCUCUGAGAGAAAUGCC [A50C A121G]  2.3
3. UACGUAGGUGGUUUUCCCCUGAUAGUGCUAAGGGGGCCUGGAAGUUUGGACUGGGCAGAGCUCAACACAGCGUGGUAAAGUGGCUGUGGCUAGACUGCCUCUCUGGAUUCCUCGUCACUCAGCAGGGCAUCUCUGAGAGUAAUGCC [C76U A140U]  2.07
4. UACGUAGGUGGUUUUCCCCUGAUAGUGCUAAGGGGGCCUGGAAGGUUGGACUGGGCAGAGCUCAACACAGCGUGGCAAAGUGGCUGUGGCUAGACUGCCUCUCUGGAUUCCUCGUCACUCUGCAGGGCAUCUCUGAGAGAAAUGCC [U45G A121U]  1.82
5. UACGUAGGUGGUUUUCCCCUGAUAGUGCUAAGGGGGCCUGGAAGUUUGGACUGGGCAGAGCUCAACACAGCGUGGCAAAGUGGCUGUGGCUAGACUGCCUCUCUGGGUUCCUCGUAACUCAGCAGGGCAUCUCUGAGAGAAAUGCC [A107G C116A]  1.71
6. UACGUAGGUGGUUUUCCCCUGAUAGUGCUAAGGGGGCCUGGAAGUUUGGAUUGGGCAGAGCUCAACACAGCGUGGCAAAGUGGCUGUGGCUAGACUGCCCCUCUGGAUUCCUCGUCACUCAGCAGGGCAUCUCUGAGAGAAAUGCC [C51U U100C]  1.68
7. UACGUAGGUGGUUUUCCCCUGAUAGUGCUAAGGGGGCCUGGAAGUUUGGACCGGGCAGAGCUCAACACAGCGUGGCAAAGUGGCUGUGGCUAGACUGCCUCUCUGGAUUCCUCGUCACUCAGCAGGGCAUCUCUGAGCGAAAUGCC [U52C A138C]  1.62
8. UACGUAGGUGGUUUUCCCCUGAUAGUGCUAAGGGGGCCUGGGAGUUUGGACUGGGCAGAGCUCAACACAGCGUGGCAAAGUGGCUGUGGCUAGACUGCCUCUCUGGAUUCCUCGUCACUCAGCAGGGCAUCUCUGAGUGAAAUGCC [A42G A138U]  1.6
9. UACGUAGGUGGUUUUCCUCUGAUAGUGCUAAGGGGGCCUGGAAGUUUGGACUGGGCAGAGCUCAACACAGCGCGGCAAAGUGGCUGUGGCUAGACUGCCUCUCUGGAUUCCUCGUCACUCAGCAGGGCAUCUCUGAGAGAAAUGCC [C18U U73C]  1.53
10. UACGUAGGUGGAUUUCCCCUGAUAGUGCUAAGGGGGCCUGGAAGUUUGGACUGGGCAGAGCUCAACACAGCGUGGCAAAGUGGCUGUGGCUAGACUGCCUCUCUGGAUUCCUCGUCACUCGGCAGGGCAUCUCUGAGAGAAAUGCC [U12A A121G]  1.43
11. UACGUAGGUGGUUUUCCCCUGAUAGUGCUAAGGGGGCCUGGAAGUUUGGACUGGGCAGAGCUCAACACAGCGUGGCAAAGUGGCUGUGGCUAGACUGCCUCUCUGGAUUCCUCGUCACUCAACAGGGCAUCUCCGAGAGAAAUGCC [G122A U134C]  1.43
12. UACGUAGGCGGUUUUCCCCUGAUAGUGCUAAGGGCGCCUGGAAGUUUGGACUGGGCAGAGCUCAACACAGCGUGGCAAAGUGGCUGUGGCUAGACUGCCUCUCUGGAUUCCUCGUCACUCAGCAGGGCAUCUCUGAGAGAAAUGCC [U9C G35C]  1.43
13. UACGUAGGUGGUUUUCCCCUGAUAGUGCUAAGGGGGCCAGGAAGUUUGGACUGGGCAGAGCUCAACACAGCGCGGCAAAGUGGCUGUGGCUAGACUGCCUCUCUGGAUUCCUCGUCACUCAGCAGGGCAUCUCUGAGAGAAAUGCC [U39A U73C]  1.38
14. UACGUAGGUGGUUUUCCCCUGAUAGUGCUAAGGGGGCCAGGAAGUUUGGACUGGGCAGAGCUCAACACAGCGUGGCAAAGUGGCUGUGGCUAGACUGCCUCUCUGGAUUCCUCGUAACUCAGCAGGGCAUCUCUGAGAGAAAUGCC [U39A C116A]  1.38
15. UACGUAGGUGGUUUUCCCCUGAUAGUGCUAAGGGGGCCUGGAAGUUUGGACUGGGCAGAGCUCAACACAGCGUGGCAAAGCGGCUGUGGCUAGACUGCCUCUCUGGAUUCCUCGUCACUCAGCAGGGCAUCUCUGAGAGAAAUGCC [U81C]  1.37
16. UACGUAGGUGGUUUUCCCCUGAUAGUGCUAAGGGGGCCAGGAAGUUUGGACUGGGCAGAGCUCAACACAGCGUGGCAAAGUGGCUGUGGCUAGACUGCCUCUCUGGAUUCCUCGUCACUCAGCAGGGCAUCUCUGAGAGGAAUGCC [U39A A140G]  1.36
17. UACGUAGGUGGUUUUCCCCUGAUAGUGCUAAGGGGGCCUGGAAGUUUGGACUGGGCAGAGCUCAACACAGCGUGGCAAAGUGGCUGUGGCUAGACUGCCUCUCUGGAUUCCUCGUCACUCAGCUGGGCAUCUCUGAGAGAGAUGCC [A124U A141G]  1.36
18. UACGUAGGUGGUUUUCCCCUGAUAGUGCUAAGGGGGCCUGGAUGUUUGGACUGGGCAGAGCUCAACACAGCGUGGCAAAGUGGCUGUGGCUAGACUGCCUCUCUGGAUUCCUCGUCACUCAGCAGGGCAUCUCCGAGAGAAAUGCC [A43U U134C]  1.26
19. UACGUCGGUGGUUUUCCCCUGAUAGUGCUAAGGGGGCCUGGAAGUUUGGACUGGGCAGAGCUCAACACAGCGUGGCAAAGUGGCUGUGGCUAGACUGCCUCUCUGGAUUCCUCGUCACUCUGCAGGGCAUCUCUGAGAGAAAUGCC [A6C A121U]  1.18
20. UACGUAGGCGGUUAUCCCCUGAUAGUGCUAAGGGGGCCUGGAAGUUUGGACUGGGCAGAGCUCAACACAGCGUGGCAAAGUGGCUGUGGCUAGACUGCCUCUCUGGAUUCCUCGUCACUCAGCAGGGCAUCUCUGAGAGAAAUGCC [U9C U14A]  1.17
21. UACGUAGGUGGUUUUCCCCUGAUAGUGCUAAGGGGGCCUGGAAGUUUGGACUGGGCAGAGCUCAACACAGCGUGGCAGGGUGGCUGUGGCUAGACUGCCUCUCUGGAUUCCUCGUCACUCAGCAGGGCAUCUCUGAGAGAAAUGCC [A78G A79G]  1.14
22. UACGUAGGUGGUUUUCCCCUGAUAGUGCUAAGGGGGCCUGGAAGUUUGGACUGGGCAGAGCUCAACACAGCGUGGCAAAGUGGCUGUGGCUAGACUGCCUCUCUGGAUGCCUCGUCACUCAGCGGGGCAUCUCUGAGAGAAAUGCC [U109G A124G]  1.04
23. UACGUAGGUGGUUAUCCCCUGAUAGUGCUAGGGGGGCCUGGAAGUUUGGACUGGGCAGAGCUCAACACAGCGUGGCAAAGUGGCUGUGGCUAGACUGCCUCUCUGGAUUCCUCGUCACUCAGCAGGGCAUCUCUGAGAGAAAUGCC [U14A A31G]  0.89
24. UUCGUAGGAGGUUUUCCCCUGAUAGUGCUAAGGGGGCCUGGAAGUUUGGACUGGGCAGAGCUCAACACAGCGUGGCAAAGUGGCUGUGGCUAGACUGCCUCUCUGGAUUCCUCGUCACUCAGCAGGGCAUCUCUGAGAGAAAUGCC [A2U U9A]  0.86
25. UACGUAGGUGGUUUUCCCCUGAUAGUGCUAAGGGGGCCUGGAAGUUUGGACUGGGCAGAGCUCAACACAGCGUGGCAAAGUGGCUGUGGCUAGACUGCCUCUCUGGAUUCCUCGUCACUCAGCAGGGCAUCUCUGAGAGGUAUGCC [A140G A141U]  0.82
26. UGCGUAGGUGGUUUUCCCCUGAUAGUGCCAAGGGGGCCUGGAAGUUUGGACUGGGCAGAGCUCAACACAGCGUGGCAAAGUGGCUGUGGCUAGACUGCCUCUCUGGAUUCCUCGUCACUCAGCAGGGCAUCUCUGAGAGAAAUGCC [A2G U29C]  0.81
27. UACGUAGGUGGUUUACCCCUGAUAGUGCUAAGGGGGCCUGGAAGGUUGGACUGGGCAGAGCUCAACACAGCGUGGCAAAGUGGCUGUGGCUAGACUGCCUCUCUGGAUUCCUCGUCACUCAGCAGGGCAUCUCUGAGAGAAAUGCC [U15A U45G]  0.73
28. UACGUAGGUGGUUUUCCCCUGAUAGUGCUAGGGGGGCCUGGAAGUUUGGACUGGGCAGAGCUCUACACAGCGUGGCAAAGUGGCUGUGGCUAGACUGCCUCUCUGGAUUCCUCGUCACUCAGCAGGGCAUCUCUGAGAGAAAUGCC [A31G A64U]  0.48
29. UACGUAGGUGGUUUUCCCCUGAUAGUGCUAAGGGGGCCUGGAAGUUUGGACUGGGCAGAGCUCCACACAGCGUGGCAAAGUGGCUGUGGCUAGACUGCCUCUCUGGAUUCCUCGUCGCUCAGCAGGGCAUCUCUGAGAGAAAUGCC [A64C A117G]  0.42
30. UACGUAGGUGGUUUUCCCCUGAUAGUGCUAAGGGGGCCUGGAGGUUUGGACUGGGCAGAGCUCAACACAGCGUGGCAAAGUGGCUGCGGCUAGACUGCCUCUCUGGAUUCCUCGUCACUCAGCAGGGCAUCUCUGAGAGAAAUGCC [A43G U87C]  0.32
31. UACGUAGGUGGUUUUCCCCUGAUAGUGCUAAGGGGGCCUGGAAGUUUGGACUGGGCAGAGCUCCACACAGCGUGGCAAAGUGGCUGUGGCUAGACUGCCUCUAUGGAUUCCUCGUCACUCAGCAGGGCAUCUCUGAGAGAAAUGCC [A64C C103A]  0.29
32. UACGUAGGUGGUUUUCCCCUGGUAGUGCUAAGGGGGCCUGGAAGUUUGGACUGGGCAGAGCUCAACACAGCGUGGCAAAGUGGCUGCGGCUAGACUGCCUCUCUGGAUUCCUCGUCACUCAGCAGGGCAUCUCUGAGAGAAAUGCC [A22G U87C]  0.28
33. UACGUAGGUGGUUUUCCCCUGAUGGUGCUAAGGUGGCCUGGAAGUUUGGACUGGGCAGAGCUCAACACAGCGUGGCAAAGUGGCUGUGGCUAGACUGCCUCUCUGGAUUCCUCGUCACUCAGCAGGGCAUCUCUGAGAGAAAUGCC [A24G G34U]  0.21
34. UACGUAGGUGGUUUGCCCCUGAUAGUGCUAAGGGGGCCUGGAAGUUUGGGCUGGGCAGAGCUCAACACAGCGUGGCAAAGUGGCUGUGGCUAGACUGCCUCUCUGGAUUCCUCGUCACUCAGCAGGGCAUCUCUGAGAGAAAUGCC [U15G A50G]  0.18
35. UACGUAGGUGGUUUUCCCCUGAUAGUGCUAAGGGGGCCUGGAAGUUUGGGCGGGGCAGAGCUCAACACAGCGUGGCAAAGUGGCUGUGGCUAGACUGCCUCUCUGGAUUCCUCGUCACUCAGCAGGGCAUCUCUGAGAGAAAUGCC [A50G U52G]  0.18
36. UACGUAGGUGGUUUUCCCCUGAUAGUGCUAAGGGGGCCUGGAAGUUUGGGCUGGGCAGAGCUCAAUACAGCGUGGCAAAGUGGCUGUGGCUAGACUGCCUCUCUGGAUUCCUCGUCACUCAGCAGGGCAUCUCUGAGAGAAAUGCC [A50G C66U]  0.08
37. UACGUAGGUGGUUUUCCCCUGAUAGUGCUAAGGGGGCCUGGAAGUUUGGACUGGGCAGAGCUCAACACAGCGUGGCAAAGUGGCUGUGGCUAGACAGCCUCUCUGGAUUCCUCGUCACUCAGCAGGACAUCUCUGAGAGAAAUGCC [U96A G127A]  0.06
38. UACGUAGGUGGUUUUCCCCUGAUAGUGCUAAGGGGGCCUGGAAGUUUGGACUGGGCAGAGCUCAACACAGCGUGGCAAAGUGGCUGUGGCGAGACUGCCUCUCUGGAUUCCUCGUCACUCAGCAGGGCUUCUCUGAGAGAAAUGCC [U91G A129U]  0.05
39. UACGUAGGUGGUUUUCCCCUGAUAGUGCUAAGGGGGCCUGGAAGUUUGGACUGGGCAGAGCUCAGCACAGCGUGGCAAAGUGGCUGUGACUAGACUGCCUCUCUGGAUUCCUCGUCACUCAGCAGGGCAUCUCUGAGAGAAAUGCC [A65G G89A]  0.04

Reference: the RNAGym collection of RNA variant scans (doi:10.7554/elife.90254)
